Experimental data published in patent US20250332297A1, “DLL3-SPECIFIC BINDING CONSTRUCTS AND THEIR USE IN RADIOTHERAPY” (MOLECULAR PARTNERS AG, priority 2024, published 2025).
One block for each molecule: values may come before it.

How the values were obtained:
human DLL3 = biological target: T1, human DLL3 (Homo sapiens, UniProt Q9NYJ7); experiment: SPR multi-trace analysis, binding to human DLL3 (Example 1); settings: immobilized bio-DLL3 (hDLL3 ECD), PBS pH 7.4, 1:1 Langmuir, Table 1
T1 construct: (Q9NYJ7, Gene ID: 10683, residues 27 to 466; purchased from Evitria); 3C protease recognition site (C); Fc knob into hole (C); purchased Evitria
T1 sequence (Q9NYJ7 27-466): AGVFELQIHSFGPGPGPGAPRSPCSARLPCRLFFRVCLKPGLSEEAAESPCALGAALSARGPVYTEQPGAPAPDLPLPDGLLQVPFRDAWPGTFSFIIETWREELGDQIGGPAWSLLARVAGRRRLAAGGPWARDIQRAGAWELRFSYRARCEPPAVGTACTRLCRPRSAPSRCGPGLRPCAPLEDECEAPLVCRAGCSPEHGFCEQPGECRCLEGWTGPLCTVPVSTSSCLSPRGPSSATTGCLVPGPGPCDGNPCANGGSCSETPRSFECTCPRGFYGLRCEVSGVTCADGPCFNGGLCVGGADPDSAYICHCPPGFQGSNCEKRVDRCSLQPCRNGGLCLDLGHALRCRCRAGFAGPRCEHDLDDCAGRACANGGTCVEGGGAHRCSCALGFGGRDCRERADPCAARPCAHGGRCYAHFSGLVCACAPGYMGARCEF
Description: Kinetic binding parameters and binding affinities of two domain (2D) ankyrin repeat proteins comprising an ankyrin repeat domain with binding specificity for DLL3 and an ankyrin repeat domain with binding specificity for serum albumin were determined by surface plasmon resonance (SPR) multi-trace analysis.
In brief, a SPR assay was used to determine the binding kinetics to the target human DLL3. The data were generated using BioRad ProteOn instrument in SPR running buffer (PBS, pH 7.4 containing 0.005% Tween 20®). […] The chip was coated with biotinylated target (bio-DLL3) to reach a signal intensity of 1780 RU. All analytes (3-fold dilution ranging from 300-33.3 nM) were injected in succession for 240 s (100 μl/min) and dissociation was recorded for 10800 s (100 μl/min). Each injection was followed by a regeneration step with 16 mM H3PO4 for 18 s. […] The bio-DLL3 target used was as described in U.S. 63/550,951, i.e. the extracellular domain (ECD) of human DLL3 protein (Q9NYJ7, Gene ID: 10683, residues 27 to 466; purchased from Evitria) linked via an Avi-tag (for site-directed biotinylation), followed by a 3C protease recognition site, to a Fc knob into hole (hDLL3 ECD-Avi-Fckih).

mouse serum albumin = biological target: T2, mouse serum albumin (Mus musculus, UniProt P07724); experiment: SPR binding to mouse serum albumin (Example 1); settings: immobilized MSA, 1:1 Langmuir, Table 2
T2 construct: purchased Sigma-Aldrich
Description: Similarly, a SPR assay was used to determine the binding kinetics to human or mouse serum albumin. […] All analytes (3-fold dilution ranging from 1000-12.35 nM) were injected in succession for 240 s (25 μl/min) and dissociation was recorded for 600 s (25 μl/min). […] The obtained SPR traces were used to determine the ankyrin repeat protein-serum albumin interaction parameters, summarized in Table 2.

[1] = Pharmacokinetic analysis in WT BALBc mice (serum, ELISA); format: in vivo, mouse; settings: natural lead-labelled DOTAM conjugate 1 mg/kg i.v., Tables 16, 17
From the text: The pharmacokinetic (PK) properties of lead-labelled DARPin (MAM160, MAM279, MAM282, MAM283) conjugates were investigated in mice, including to determine the terminal half-life (or serum half-life) of these conjugates.
In brief, DARPins MAM279, MAM283, MAM160 and MAM282 were conjugated to the chelator DOTAM, via a C-terminal Cysteine containing tag and a connector, as described in Example 3. The conjugates were then labelled with natural lead (Pb). The protein components of the conjugates corresponded to SEQ ID NOs: 15 to 18, respectively. These lead-labelled DARPin conjugates were injected i.v. at 1 mg/kg into WT BALBc mice. Serum was collected 2 min, 10 min, 30 min, 1 h, 4 h, 24 h, 48 h, and 72 h post-injection. DARPins were detected and measured by ELISA. The data were expressed as the DARPin concentration in serum (nmol/L).
In brief, lead-labelled MAM279 conjugate, as described in Example 13, was injected i. at 0.1 mg/kg or at 1 mg/kg into the tail vein of WT BALBc mice. Serum was collected 2 min, 10 min, 30 min, 1 h, 4 h, 24 h, 48 h, and 72 h post-injection for MAM279 conjugate injected at 1 mg/kg, and 2 min, 30 min, 4 h, 24 h, 30 h, 48 h, 72 h, 96 h, and 168 h post-injection for MAM279 conjugate injected at 0.1 mg/kg. DARPins were detected and measured by ELISA. The data were expressed as the DARPin concentration in serum (nmol/L).
In brief, natural lead-labelled MAM279 conjugate, as described in Example 13, was injected i.v. at different doses (0.001 mg/kg, 0.01 mg/kg, 0.1 mg/kg, or 1 mg/kg) into the tail vein of WT BALBc mice. Similarly, unconjugated Rova was injected iv. at 1 mg/kg into the tail vein of WT BALBc mice. Serum was collected 2 min, 10 min, 30 min, 1 h, 4 h, 24 h, 48 h, and 72 h post-injection for MAM279 conjugate injected at 1 mg/kg, and 2 min, 30 min, 4 h, 24 h, 30 h, 48 h, 72 h, 96 h, and 168 h post-injection for MAM279 conjugate injected at 0.1 mg/kg, 0.01 mg/kg and 0.001 mg/kg. Serum was collected 2 min, 30 min, 4 h, 24 h, 30 h, 48 h, 72 h, 96 h, and 168 h post-injection for Rova antibody injected at 1 mg/kg. DARPins and Rova were detected and measured by ELISA. Rova PK characteristics were calculated with time points between 4 h and 168 h and MAM279 conjugate PK characteristics were calculated with time points between 4 h and 72 h. The data were expressed as the DARPin or Rova concentration in serum (nmol/L). Results are shown in FIGS. 19A and 19B and Table 22.

T2 sequence (P07724 25-608): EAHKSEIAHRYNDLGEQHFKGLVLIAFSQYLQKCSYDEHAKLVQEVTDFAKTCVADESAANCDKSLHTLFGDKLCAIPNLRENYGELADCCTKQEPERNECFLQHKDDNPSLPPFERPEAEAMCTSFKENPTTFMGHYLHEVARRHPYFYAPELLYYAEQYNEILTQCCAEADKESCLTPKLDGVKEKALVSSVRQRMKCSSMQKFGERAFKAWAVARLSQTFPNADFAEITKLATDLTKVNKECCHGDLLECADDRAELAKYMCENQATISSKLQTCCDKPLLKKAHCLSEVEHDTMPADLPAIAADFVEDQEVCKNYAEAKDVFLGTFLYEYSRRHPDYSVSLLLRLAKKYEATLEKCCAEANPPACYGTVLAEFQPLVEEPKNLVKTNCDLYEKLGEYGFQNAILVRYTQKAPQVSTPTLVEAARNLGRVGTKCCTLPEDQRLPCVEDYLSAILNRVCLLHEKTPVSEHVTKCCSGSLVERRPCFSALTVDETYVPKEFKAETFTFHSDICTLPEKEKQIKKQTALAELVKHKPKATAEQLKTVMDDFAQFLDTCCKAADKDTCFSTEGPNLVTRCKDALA

Kd (human DLL3): 3.03 nM | koff (human DLL3): 3.79e-05 s⁻¹ | kon (human DLL3): 12500 M⁻¹ s⁻¹
B1: MAM282: Two domain (2D) ankyrin repeat protein: serum albumin-specific domain (SEQ ID NO: 7), PT linker, DLL3-specific domain (SEQ ID NO: 2) (protein)
chain: DLGKKLLEAARAGQDDEVRELLKAGADVNAKDYFSHTPLHLAARNGHLKIVEVLLKAGADVNAKDFAGKTPLHLAADAGHLEIVEVLLKAGADVNAQDIFGKTPADIAADAGHEDIAEVLQKAAGSPTPTPTTPTPTPTTPTPTPTGSDLGKKLLAAAREGQDDEVRELLKAGADVNAKDIWGQTPLHIAAWFGHLEIVEVLLKAGADVNAKDQTGHTPLHLAAKFGHLEIVEVLLKAGADVNAQDLLGRTPADLAAEEGHEDIAEVLQKAA
modifications: Ankyrin repeat protein (MAM282)
Kd (mouse serum albumin): 335 nM | Koff MSA (mouse serum albumin): 0.0354 s⁻¹ | Kon MSA (mouse serum albumin): 105900 M⁻¹ s⁻¹ | AUCINF_pred [1]: 8.435 µM·h | AUC_% Back_Ext_pred [1]: 0% | AUC_% Extrap_pred [1]: 17% | AUClast [1]: 7.0389 µM·h | CI_pred [1]: 4 mL/h/kg | Cmax [1]: 461 nM | HL_Lambda_z [1]: 28.5 h | Tmax [1]: 1.98 min | Vss_pred [1]: 0.153 L/kg

Kd (human DLL3): 1.99 nM | koff (human DLL3): 2.01e-05 s⁻¹ | kon (human DLL3): 10100 M⁻¹ s⁻¹
B2: MAM160: Two domain (2D) ankyrin repeat protein: serum albumin-specific domain (SEQ ID NO: 7), PT linker, DLL3-specific domain MAM120 (protein)
chain: DLGKKLLEAARAGQDDEVRELLKAGADVNAKDYFSHTPLHLAARNGHLKIVEVLLKAGADVNAKDFAGKTPLHLAADAGHLEIVEVLLKAGADVNAQDIFGKTPADIAADAGHEDIAEVLQKAAGSPTPTPTTPTPTPTTPTPTPTGSDLGTKLLSAAADGQDDEVRELLQAGADVNAKDLFGYTPLHLAAWRGHLEIVEVLLEAGADVNAKDAAGLTPLHLAAWFGHLEIVEVLLEAGADVNAQDVQGVTPADLAAKEGHEDIAEVLQQAA
modifications: Ankyrin repeat protein (MAM160)
Kd (mouse serum albumin): 336 nM | Koff MSA (mouse serum albumin): 0.0271 s⁻¹ | Kon MSA (mouse serum albumin): 80430 M⁻¹ s⁻¹ | AUCINF_pred [1]: 4.5873 µM·h | AUC_% Back_Ext_pred [1]: 1% | AUC_% Extrap_pred [1]: 0% | AUClast [1]: 4.5787 µM·h | CI_pred [1]: 7.4 mL/h/kg | Cmax [1]: 625 nM | HL_Lambda_z [1]: 8.3 h | Tmax [1]: 1.98 min | Vss_pred [1]: 0.060 L/kg
